# Tests used:
# [1] = biological target: HER2 on HER2^+ tumor cell lines (BT474, OE19, ZR75) (UniProt P04626 23-1255, limits assumed); assay: cell-based or functional assay
# [2] = biological target: T1, recombinant human TfR apical domain (human, UniProt P02786 198-378); assay: SPR (Biacore T200 or 8K); protein captured on anti-human Fab chip, recombinant human TfR apical domain as analyte; 1:1 Langmuir fit
# T1 construct: also called transferrin receptor protein 1 apical domain
# Experimental: Affinities of the bispecific proteins were measured by SPR using a Biacore T200 or a Biacore 8K. Biacore™ Series S CM5 sensor chips were immobilized with monoclonal mouse anti-human IgG (Fc) antibody for HER2 affinity measurements or mouse anti-human Fab for TfR affinity measurements (human antibody or Fab capture kit from GE Healthcare). Serial 3-fold dilutions of analyte (recombinant HER2 extracellular domain or recombinant TfR apical domain) were injected at a flow rate of 30 μL/min. Each sample was analyzed using a 3-minute association and a 10-minute dissociation for HER2 extracellular domain binding and a 40-second association and a 3-minute dissociation for human TfR apical domain binding. After each injection, the chip was regenerated using 3 M MgCl₂ or 50 mM glycine at pH 2.0. Binding response was corrected by subtracting the RU from a flow cell capturing an irrelevant IgG at similar density. A 1:1 Languir model of simultaneous fitting of kon and koff was used for kinetics analysis. […] The two constructs are described below.
# T1 sequence (P02786 198-378 limits assumed): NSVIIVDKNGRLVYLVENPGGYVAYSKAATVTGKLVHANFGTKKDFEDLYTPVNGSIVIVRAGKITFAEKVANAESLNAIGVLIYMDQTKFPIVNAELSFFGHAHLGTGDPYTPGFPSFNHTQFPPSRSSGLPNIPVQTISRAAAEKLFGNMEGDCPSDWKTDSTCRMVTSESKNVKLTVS
Binder,"IC50 (nM), BT474 + NRG1 [1] [nM]","IC50 (nM), BT-474 [1] [nM]","IC50 (nM), OE19 [1] [nM]","Min Cell viability (%), BT474 + NRG1 [1] [%]","Min Cell viability (%), BT-474 [1] [%]","Min Cell viability (%), OE19 [1] [%]","Min Cell viability (%), ZR75-30 [1] [%]",Kd [2] [nM]
"Bispecific Protein #9 (bispecific antibody, human IgG1, kappa, L234A L235A) heavy 1: EVQLVESGGGLVQPGGSLRLSCAASGFTFTDYTMDWVRQAPGKGLEWVADVNPNSGGSIYNQRFKGRFTLSVDRSKNTLYLQMNSLRAEDTAVYYCARNLGPSFYFDYWGQGTLVTVSSASTKGPSVFPLAPSSKSTSGGTAALGCLVKDYFPEPVTVSWNSGALTSGVHTFPAVLQSSGLYSLSSVVTVPSSSLGTQTYICNVNHKPSNTKVDKKVEPKSCDKTHTCPPCPAPEAAGGPSVFLFPPKPKDTLMISRTPEVTCVVVDVSHEDPEVKFNWYVDGVEVHNAKTKPREEQYNSTYRVVSVLTVLHQDWLNGKEYKCKVSNKALPAPIEKTISKAKGQPREPQVYTLPPSRDELTKNQVSLWCLVKGFYPSDIAVEWESYGTEWSNYKTTPPVLDSDGSFFLYSKLTVSKEEWQQGFVFSCSVMHEALHNHYTQKSLSLSPGK heavy 2: not shown light: not shown",3.5,2.3,1.1,37,21,57,87,500
"Bispecific Protein #2 (bispecific antibody, human IgG1, kappa, L234A L235A) heavy: EVQLVESGGGLVQPGGSLRLSCAASGFTFTDYTMDWVRQAPGKGLEWVADVNPNSGGSIYNQRFKGRFTLSVDRSKNTLYLQMNSLRAEDTAVYYCARNLGPSFYFDYWGQGTLVTVSSASTKGPSVFPLAPSSKSTSGGTAALGCLVKDYFPEPVTVSWNSGALTSGVHTFPAVLQSSGLYSLSSVVTVPSSSLGTQTYICNVNHKPSNTKVDKKVEPKSCDKTHTCPPCPAPEAAGGPSVFLFPPKPKDTLMISRTPEVTCVVVDVSHEDPEVKFNWYVDGVEVHNAKTKPREEQYNSTYRVVSVLTVLHQDWLNGKEYKCKVSNKALPAPIEKTISKAKGQPREPQVYTLPPSRDELTKNQVSLWCLVKGFYPSDIAVEWESYGTEWSNYKTTPPVLDSDGSFFLYSKLTVSKEEWQQGFVFSCSVMHEALHNHYTQKSLSLSPGK not shown light: not shown",–,–,–,–,–,–,–,480
